Reference: publication PMC8891188 (Clinical Pharmacokinetics, 2021)
Where two headings read alike, the source gives them in different places.

Assays:
[1] = simulation of the previous study by Rüppel et al.; cited from earlier work
[2] = 10 U SC; Howey et al.; cited from earlier work
[3] = cited from earlier work
[4] = test system: persons with type 1 diabetes mellitus; test: Euglycemic clamp pharmacodynamics; type: in vivo, human
[5] = Serum insulin pharmacokinetics during euglycemic clamp; type: in vivo, human
[6] = across doses, TI inhaled, LIS SC
[7] = mean (SD) of n = 5 PK profiles selected for comparable AUClast, SD

Row | Substance | ED50, Emax model of predicted GIR AUC vs D [1] [U] | MRT [2] [min] | Time to maximum concentration (Cmax) of insulin ([3]; IV, after the start of administration) [min] | Time to maximum concentration (Cmax) of insulin ([3]; SC, after administration) [min] | Geometric mean dose-normalized effect, GIR AUC/D [4, 6] [mg/kg/U] | γ, model of GIRmax vs Cmax (common value) ([4]; common to TI and LIS, estimate (standard error), SEM) | Total effect (GIR AUC) at comparable low insulin exposure ([4]; n = 5 profiles per treatment, AUClast about 6537 min∙µU/mL) [mg/kg] | Exponent of dose dependence of tGIRend (tGIRend ~ D^x) ([4]; power-law fit, log-transformed variables) | Insulin exposure estimated from the linear regression equations ([5]; 10-U dose of LIS SC, regression equations in the ESM) [min µU/mL] | Geometric mean dose-normalized insulin exposure (AUClast/D) across doses [5, 6] [min·µU/mL/U] | Estimated MRT at the same insulin exposure ([5]; insulin exposure of 8152 min µU/mL, regression equations) [min] | AUClast of profiles at the high end of the common exposure range [5, 7] | AUClast of profiles at the low end of the common exposure range [5, 7]
1 | RHI: regular human insulin, given intravenously or subcutaneously in cited studies | 48 | 235 | 5 | 121 | – | – | – | – | – | – | – | – | –
2 | [Lys(B28), Pro(B29)]-human insulin [LIS] | – | 101 | – | – | 66.2 | 1.37 (0.19) | 899 | ~0.282 | 8152 | 883 | 118 | 61,371 (9082) min∙µU/mL | 6538 (65) min∙µU/mL
